Data published in the domain aggregation screens of Martell et al. (2025).

Experiment: soluble fraction after stress (log2 fold change); higher = more stays soluble; pooled small domains, quantitative proteomics
Conditions: stress: 75 degC
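Note: 20 min heating vs room temperature control held 20 min.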

Sequence	soluble fraction (log2)
HMLPLLEYLDPFTGKKTYTYLNPDTQHPIFTYYSYQDDKTGRTAYSYIDPLTGKAVNSDEPPMDILYD	-0.676
HMLPPHMEVRAIMILDKRPMALMNIEGEGDGLIVSPGYRFGDGRGRVVSITQTKVVVLWAGTSMEL	-2.82
HMLPQYELIKQYLRHQIETGEWPIGYRTPSEPKLAEQFSVSRMTARRALQELADQGLLSRTAGSGTFVAKP	-0.921
HMLPVQGEEVAPGLYKFDFPFLADKRVWEKTINAFKAEHPELKVNYIYTGPDELNSKKKTHVLVYVFTES	-0.539
HMLPVYSITEAAERLDIPASTIKWYADRFASYISPSKGKGRKRFTPEDLATLQKIHELSQDHTTEEAEAML	-0.0974
HMLPYKGTVAVSLAVLHKAVGVGTADMLKAVGTLRQGTEVTVTGRNGPFAQLKNGLWMKESFLE	-1.07
HMLQADALADPVGWALRTLGFDLEAGTPERSAIQRSFRQSLIEAHPDHGGADDEAAQRIADITEARRILLA	-0.403
HMLQFTYPRLHTKKSWYVDFMSFDPGAGKMRRKKFMLDGIPKITDRRKRAAELIEVLTKQLRAGWSPWVNV	-3.85
HMLQIADEYLDRLQALFEDVRDNHFAIGDLLVELVDMHDSRRVDVINYIAGRLAISPTTLYDYENTARR	-1.15
HMLQLDATDRALIVATQGGLPLVPRPYQVVGEQLGISGEEVVARLRALLDAGVIRRIGAVPN	-0.569
HMLQLKEPLKKVYERLTPVPKTAETILAELWEKGEYLDIAALHRALMELELSGYVRQSSPGYFGTSA	-0.553
HMLQQKESAALGERLLNQALATLKVEPDAISWDRWEALAKEYGAKSQLDILADIGLGKRLSFVVAQALTKV	-1.25
HMLRDMIIQSYRYYTDKERNPRQVWNRMEADAFWEIIRDYEGYNGDGYVHTKIIPEMEALTVIEMDN	-1.83
HMLRISLAAARVNAEMTQEDVAREMHVSKNTVVNWEKGKSEPTISQSRELSKLYNMPLEYIFYL	-2.68
HMLRKTTDLDAIRSVAKDVIDQNPKAVEDYVGGKESAIGFLLGQVMRATKGTADANTVRELLKEILDS	1.01
HMLRPMVAILNKNISKGQVISEDYIKFEVRPERQIHGAYHDISEVLGRKTKNNIAAGTILKVRHLDT	-0.69
HMLRQVSDSNALETAVKKVLDANPEEVERYKSGNKKLISFFVGQTMKATKGAGNPKEINSILAKLL	-0.326
HMLSAEAAAARTAISTLSEDQQRVLGLSIQRGLVHEQIARATGLPLGTVKTHIRRGLIKVREALEAQAAG	0.00212
HMLSAGETYTLGYLKASDGILFTAADGSEQTVMQRVQVRLYDNGDGTYTARLADDIAYSAVVTEDMIDK	0.27
HMLSDAAAMESIAYEAIRQMEPDTYYIIGAGTTTRGIMEVLGLKNTLIGVDLIRNKELVANDLGGKELLSY	0.0782
HMLSDEDMMELAIIENLQRENLNPIEEARAYESLIDKGFTHTEIADKMGKSRPYISNSIRLLSL	0.355
HMLSDFHLNHDSIVNHTVQKKETIFSLSKKYGLSINEIIKANPGIQIDKLKRRSILIIPLRKK	-1.81
HMLSDLTPGDLVVHATHGIGRFLGIRKLELEGMTKDYITIQYRGNENLYVPVTQMDLVSRYI	-1
HMLSGGEVKRIEIATILARKSGLMIFDEPEAGIDLWSFARLVETFEDIRSNTSGSLVIISHQ	0.0709
HMLSKEERRSQLLDLGVRLLSTRSLDELSIDLLAEEAGISRGLLYHYFGNKHDFHEAVVRRAADDLI	-2.15
HMLSLKAQVYEIIRQKILQQEYALGEKINIDTVADELKISNSPIREALMMLSQDGLIEMVPNNGARVI	-1.88
HMLSLSDIINDVMERLTREKNLTFDELLGEKRERRRIVYTFLALLELIRLKMIKAYQTAAFGVIRIFPR	-1.4
HMLSLTSRQQEIFDLIKGHIKKTGMPPTRSEIALHFGFRSANSAEEHLRALARKGFIELIPGTSRGIKLIE	-1.87
HMLSPPWYEYHRKVQAMFGRDPEVHIKDLDDLGDGKFSYMILVYNKEKAEAIKAILPQKVEMGNVTIETAI	-1.87
HMLSRNEWLVMEALWERPSTLMELVRQLGQEPPGWAKSTTATMVRRMEEKGLIRHEAGSKARVYHP	-1.82
